# In US9176064B2, “Bisubstrate fluorescent probes for protein kinase CK2” (University of Tartu, priority 2012, dated 2015):
# Where a SMILES comes first, the peptide text is derived from it. [ ]: non-standard residue; d: D form. The star is where a group is joined. X1 = O=C(CCCCCCCn1cnc2c(Br)c(Br)c(Br)c(Br)c21)*
# Assays:
# Experiment in all cases: Kinase panel residual activity
# Assay type in all cases: biochemical
# Conditions in all cases: compound at 1 micromolar
# TTK = target: T1, TTK (Homo sapiens, UniProt P33981)
# T1 sequence (P33981 1-857): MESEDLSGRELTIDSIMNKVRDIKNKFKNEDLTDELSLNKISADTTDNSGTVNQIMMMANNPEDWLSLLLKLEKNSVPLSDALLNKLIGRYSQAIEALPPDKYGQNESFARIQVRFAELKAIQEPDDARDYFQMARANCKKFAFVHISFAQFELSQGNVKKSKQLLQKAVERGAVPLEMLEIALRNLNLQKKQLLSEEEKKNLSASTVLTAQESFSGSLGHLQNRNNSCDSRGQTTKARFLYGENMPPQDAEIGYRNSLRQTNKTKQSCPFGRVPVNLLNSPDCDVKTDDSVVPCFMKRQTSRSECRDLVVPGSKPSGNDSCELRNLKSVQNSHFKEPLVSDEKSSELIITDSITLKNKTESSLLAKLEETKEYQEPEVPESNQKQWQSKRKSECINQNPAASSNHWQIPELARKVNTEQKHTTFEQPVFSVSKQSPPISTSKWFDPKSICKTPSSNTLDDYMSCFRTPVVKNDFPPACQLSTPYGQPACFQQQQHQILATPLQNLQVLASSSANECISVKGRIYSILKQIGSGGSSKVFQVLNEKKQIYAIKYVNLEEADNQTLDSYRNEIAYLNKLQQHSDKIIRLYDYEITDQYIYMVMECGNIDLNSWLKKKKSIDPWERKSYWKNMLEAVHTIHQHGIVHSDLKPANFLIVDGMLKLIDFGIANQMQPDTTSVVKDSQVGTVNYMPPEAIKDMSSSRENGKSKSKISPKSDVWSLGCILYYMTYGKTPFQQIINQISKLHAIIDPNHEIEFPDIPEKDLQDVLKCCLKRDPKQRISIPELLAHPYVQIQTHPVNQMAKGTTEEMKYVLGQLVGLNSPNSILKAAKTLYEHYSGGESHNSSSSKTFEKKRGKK
# IR = IR (Homo sapiens, UniProt P06213)
# IR, sequence (P06213 28-1382): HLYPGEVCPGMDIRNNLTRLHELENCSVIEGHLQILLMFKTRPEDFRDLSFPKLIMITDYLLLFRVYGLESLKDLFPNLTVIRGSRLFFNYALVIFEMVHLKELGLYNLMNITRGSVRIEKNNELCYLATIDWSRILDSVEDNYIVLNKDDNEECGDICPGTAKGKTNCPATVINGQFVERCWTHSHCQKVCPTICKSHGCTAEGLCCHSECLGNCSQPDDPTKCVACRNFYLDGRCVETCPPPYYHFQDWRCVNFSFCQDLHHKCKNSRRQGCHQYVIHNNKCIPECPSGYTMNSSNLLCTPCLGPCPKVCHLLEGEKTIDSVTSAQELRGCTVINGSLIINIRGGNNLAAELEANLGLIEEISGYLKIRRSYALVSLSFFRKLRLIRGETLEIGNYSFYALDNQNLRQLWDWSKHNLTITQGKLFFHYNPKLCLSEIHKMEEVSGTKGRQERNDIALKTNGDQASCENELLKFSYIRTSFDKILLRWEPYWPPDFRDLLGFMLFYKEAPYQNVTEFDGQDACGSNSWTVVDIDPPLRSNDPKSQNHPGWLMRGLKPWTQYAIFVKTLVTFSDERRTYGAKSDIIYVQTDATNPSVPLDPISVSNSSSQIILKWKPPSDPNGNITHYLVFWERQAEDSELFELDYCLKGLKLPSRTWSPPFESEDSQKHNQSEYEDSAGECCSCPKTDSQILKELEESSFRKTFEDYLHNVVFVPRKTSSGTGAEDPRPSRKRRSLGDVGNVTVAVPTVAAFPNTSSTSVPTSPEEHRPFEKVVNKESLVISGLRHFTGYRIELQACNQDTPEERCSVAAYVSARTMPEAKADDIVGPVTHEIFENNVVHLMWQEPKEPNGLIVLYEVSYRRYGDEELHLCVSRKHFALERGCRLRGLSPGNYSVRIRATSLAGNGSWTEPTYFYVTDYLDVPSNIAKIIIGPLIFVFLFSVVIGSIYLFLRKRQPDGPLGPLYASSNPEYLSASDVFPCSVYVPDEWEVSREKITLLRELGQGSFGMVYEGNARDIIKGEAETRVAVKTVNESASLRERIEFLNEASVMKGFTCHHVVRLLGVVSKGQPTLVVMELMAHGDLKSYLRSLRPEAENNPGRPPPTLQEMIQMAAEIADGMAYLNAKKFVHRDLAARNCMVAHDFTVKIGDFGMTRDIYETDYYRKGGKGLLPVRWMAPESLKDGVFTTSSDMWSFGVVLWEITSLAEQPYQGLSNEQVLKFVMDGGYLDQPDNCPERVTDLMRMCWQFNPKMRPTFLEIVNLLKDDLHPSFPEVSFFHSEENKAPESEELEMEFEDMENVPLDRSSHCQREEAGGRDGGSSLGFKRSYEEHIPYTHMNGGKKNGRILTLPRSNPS
# PKBb = PKBb (Homo sapiens, UniProt P31751)
# PKBb, sequence (P31751 whole entry): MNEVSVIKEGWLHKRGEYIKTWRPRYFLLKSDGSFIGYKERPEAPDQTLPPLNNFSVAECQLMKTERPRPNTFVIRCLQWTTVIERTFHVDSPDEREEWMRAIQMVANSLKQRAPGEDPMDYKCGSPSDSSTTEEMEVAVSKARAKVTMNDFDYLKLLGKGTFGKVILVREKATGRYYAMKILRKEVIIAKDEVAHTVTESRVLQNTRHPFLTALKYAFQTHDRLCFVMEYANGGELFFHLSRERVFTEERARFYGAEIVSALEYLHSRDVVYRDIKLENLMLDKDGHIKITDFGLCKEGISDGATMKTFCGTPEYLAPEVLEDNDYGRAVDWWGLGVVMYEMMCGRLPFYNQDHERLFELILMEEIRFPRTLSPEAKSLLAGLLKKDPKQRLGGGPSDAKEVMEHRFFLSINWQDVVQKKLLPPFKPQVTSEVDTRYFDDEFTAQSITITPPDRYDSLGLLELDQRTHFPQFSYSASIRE
# EPH-B1 = target: T2, EPH-B1 (Homo sapiens, UniProt P54762)
# T2 sequence (P54762 18-984): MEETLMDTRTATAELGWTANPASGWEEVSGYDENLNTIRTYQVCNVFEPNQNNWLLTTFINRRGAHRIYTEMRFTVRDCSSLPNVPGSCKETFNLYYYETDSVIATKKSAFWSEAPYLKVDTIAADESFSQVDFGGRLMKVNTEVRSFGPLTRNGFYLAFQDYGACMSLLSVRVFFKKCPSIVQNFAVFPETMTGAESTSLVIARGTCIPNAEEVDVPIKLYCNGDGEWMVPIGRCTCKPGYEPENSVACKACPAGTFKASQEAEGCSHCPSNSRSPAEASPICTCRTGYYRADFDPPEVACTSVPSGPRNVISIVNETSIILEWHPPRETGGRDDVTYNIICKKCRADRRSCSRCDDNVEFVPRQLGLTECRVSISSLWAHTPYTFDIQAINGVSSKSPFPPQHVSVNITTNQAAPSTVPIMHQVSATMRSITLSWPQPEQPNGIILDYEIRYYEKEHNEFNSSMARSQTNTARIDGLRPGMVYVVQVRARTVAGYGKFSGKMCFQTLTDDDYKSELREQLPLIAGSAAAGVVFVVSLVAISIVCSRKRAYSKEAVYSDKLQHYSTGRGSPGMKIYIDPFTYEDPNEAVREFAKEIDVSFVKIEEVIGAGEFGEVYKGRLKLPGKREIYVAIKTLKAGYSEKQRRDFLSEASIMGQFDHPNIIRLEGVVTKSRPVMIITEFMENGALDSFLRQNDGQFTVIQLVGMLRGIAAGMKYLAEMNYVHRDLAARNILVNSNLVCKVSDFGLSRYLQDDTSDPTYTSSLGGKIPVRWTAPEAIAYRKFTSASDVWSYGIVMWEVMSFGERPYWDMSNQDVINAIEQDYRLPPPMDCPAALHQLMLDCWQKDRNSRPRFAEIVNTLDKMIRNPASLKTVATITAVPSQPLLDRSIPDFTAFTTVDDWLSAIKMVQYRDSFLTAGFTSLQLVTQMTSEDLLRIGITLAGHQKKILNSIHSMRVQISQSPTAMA
# ULK2 = target: T3, ULK2 (Homo sapiens, UniProt Q8IYT8)
# T3 sequence (Q8IYT8 1-1036): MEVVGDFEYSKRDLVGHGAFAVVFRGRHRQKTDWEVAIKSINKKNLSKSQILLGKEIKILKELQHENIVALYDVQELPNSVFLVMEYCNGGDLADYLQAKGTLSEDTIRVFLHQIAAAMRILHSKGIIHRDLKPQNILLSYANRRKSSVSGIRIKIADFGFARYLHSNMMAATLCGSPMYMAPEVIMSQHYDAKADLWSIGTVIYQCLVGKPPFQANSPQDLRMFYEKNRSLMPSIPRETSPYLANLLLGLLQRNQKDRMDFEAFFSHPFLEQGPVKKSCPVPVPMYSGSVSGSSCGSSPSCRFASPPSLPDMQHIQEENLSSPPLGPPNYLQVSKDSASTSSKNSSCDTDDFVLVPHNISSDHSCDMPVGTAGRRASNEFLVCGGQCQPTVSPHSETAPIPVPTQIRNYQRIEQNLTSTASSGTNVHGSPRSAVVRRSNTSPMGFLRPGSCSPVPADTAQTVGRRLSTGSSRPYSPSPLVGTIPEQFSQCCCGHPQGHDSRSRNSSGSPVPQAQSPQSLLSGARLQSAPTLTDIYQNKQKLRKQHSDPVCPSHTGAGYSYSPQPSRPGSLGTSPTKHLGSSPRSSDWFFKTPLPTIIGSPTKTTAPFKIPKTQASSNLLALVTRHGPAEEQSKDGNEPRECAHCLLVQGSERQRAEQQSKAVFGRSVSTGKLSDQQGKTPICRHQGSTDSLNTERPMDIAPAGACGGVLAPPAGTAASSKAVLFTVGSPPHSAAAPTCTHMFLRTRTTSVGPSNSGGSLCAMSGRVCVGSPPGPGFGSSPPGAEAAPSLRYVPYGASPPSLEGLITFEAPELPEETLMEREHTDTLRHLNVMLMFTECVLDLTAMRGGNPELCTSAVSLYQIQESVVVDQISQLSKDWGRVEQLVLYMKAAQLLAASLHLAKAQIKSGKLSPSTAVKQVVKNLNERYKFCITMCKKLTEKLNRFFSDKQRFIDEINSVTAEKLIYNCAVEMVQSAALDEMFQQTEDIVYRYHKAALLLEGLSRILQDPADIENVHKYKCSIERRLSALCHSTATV
# MAP4K5 = MAP4K5 (Homo sapiens, UniProt Q9Y4K4)
# MAP4K5, sequence (Q9Y4K4 whole entry, species assumed): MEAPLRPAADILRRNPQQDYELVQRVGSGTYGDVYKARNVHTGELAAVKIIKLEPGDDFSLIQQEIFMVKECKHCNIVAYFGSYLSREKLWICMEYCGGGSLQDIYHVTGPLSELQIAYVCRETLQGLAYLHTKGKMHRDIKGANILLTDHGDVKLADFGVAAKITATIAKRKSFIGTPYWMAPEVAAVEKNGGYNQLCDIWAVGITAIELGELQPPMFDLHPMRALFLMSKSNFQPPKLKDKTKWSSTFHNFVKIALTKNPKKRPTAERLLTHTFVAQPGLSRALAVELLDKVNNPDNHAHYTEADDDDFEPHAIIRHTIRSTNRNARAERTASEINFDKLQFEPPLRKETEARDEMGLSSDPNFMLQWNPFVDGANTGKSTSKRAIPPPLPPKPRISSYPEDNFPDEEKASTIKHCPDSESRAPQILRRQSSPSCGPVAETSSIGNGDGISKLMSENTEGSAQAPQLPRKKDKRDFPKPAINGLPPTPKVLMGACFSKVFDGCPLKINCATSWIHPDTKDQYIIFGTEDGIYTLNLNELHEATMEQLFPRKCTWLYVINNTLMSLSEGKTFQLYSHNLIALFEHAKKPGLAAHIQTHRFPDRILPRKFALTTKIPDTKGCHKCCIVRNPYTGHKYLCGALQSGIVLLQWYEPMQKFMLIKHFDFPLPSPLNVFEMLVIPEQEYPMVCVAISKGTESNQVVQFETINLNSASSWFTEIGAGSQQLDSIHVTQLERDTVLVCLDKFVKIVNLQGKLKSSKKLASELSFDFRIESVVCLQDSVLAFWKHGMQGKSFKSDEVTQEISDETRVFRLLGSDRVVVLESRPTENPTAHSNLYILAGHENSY
smiles,measurement,setting,value
NCCCC[C@H](NC(=O)[C@H](CC(=O)O)NC(=O)[C@H](CC(=O)O)NC(=O)[C@H](CC(=O)O)NC(=O)[C@H](CC(=O)O)NC(=O)[C@H](CC(=O)O)NC(=O)[C@@H](CC(=O)O)NC(=O)CCCCCCCn1cnc2c(Br)c(Br)c(Br)c(Br)c21)C(=O)O [TBBI-OcA-(D-Asp)-(L-Asp)5-(L-Lys)-OH] (X1-[dD]DDDDDK-OH),remaining activity at 1 µM,TTK,52%
same,remaining activity at 1 µM,IR,70%
same,remaining activity at 1 µM,PKBb,72%
same,remaining activity at 1 µM,EPH-B1,102%
same,remaining activity at 1 µM,ULK2,110%
same,remaining activity at 1 µM,MAP4K5,132%
